Results from PMC2386467.

Molecular target: Rap2.6 (Arabidopsis thaliana) (UniProt Q7G1L2)
Assay: EMSA
Settings: EMSA: 2.5 ug protein, 20 ng DNA, 0.5x TBE, 20 min room temperature, 6-7% native PAGE, anti-His blot; affinity assay: 2 ug protein, 100 pmol F5, 0.5x TBE, 10 min

Chain of Rap2.6 (Arabidopsis thaliana) (Q7G1L2 whole entry): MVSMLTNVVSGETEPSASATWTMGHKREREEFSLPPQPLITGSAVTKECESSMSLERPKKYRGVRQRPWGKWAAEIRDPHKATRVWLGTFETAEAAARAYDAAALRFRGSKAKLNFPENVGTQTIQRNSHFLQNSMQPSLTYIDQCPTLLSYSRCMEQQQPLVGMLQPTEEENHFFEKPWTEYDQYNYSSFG

Row | Sequence | binding
1 | CTCCGGTCACGCGATTCAACTTATATCTTCTCTCAGAACTGTCAACACTTGAAAGGAGAAGATCGAGAGAATTAATGAGACAACAGAGAAACCACTAAAAATCAAAACTTTGCAAAATAAGTGAAGAAGCCTTTTAAAGTAAACCAAGTGAAGAGAG (double strand) [F5] | no binding
2 | AAACCATGGCATGCATAAGAGTCTTGAGCATAATAATGAAACCTGGATTTCCCGGAATAAACAATACATGGAATGTGGGATTCTCAGCTTGAATTTCCATCATCTCCGTCATC (double strand) [F2] | no binding
3 | AAACCATGGCATGCATAAGAGTCTTGAGCATAATAATGAAACCTGGATTTCCCGGA (double strand) [F1] | no binding
4 | TCTCCGTCATCGAACTTTGATCACAAATACAAAAAACAAAACAAAAAGTGTAACTATAGTCAAAGAAATTAGAAAATTTCGTAAAAGATTAATGTAACAATACCCAGAAACTCTGC (double strand) [F3] | no binding
